# Reference: patent publication CN109836488A, “一种治疗代谢疾病的胰高血糖素类似物” (Zhejiang Doer Biologics Co Ltd, priority 2017, dated 2019)
# Tests used:
# [1] = cited from earlier work
# GIPR = target: T1, GIPR (Homo sapiens, UniProt P48546); conditions: cited from earlier work
# T1 sequence (P48546 22-466): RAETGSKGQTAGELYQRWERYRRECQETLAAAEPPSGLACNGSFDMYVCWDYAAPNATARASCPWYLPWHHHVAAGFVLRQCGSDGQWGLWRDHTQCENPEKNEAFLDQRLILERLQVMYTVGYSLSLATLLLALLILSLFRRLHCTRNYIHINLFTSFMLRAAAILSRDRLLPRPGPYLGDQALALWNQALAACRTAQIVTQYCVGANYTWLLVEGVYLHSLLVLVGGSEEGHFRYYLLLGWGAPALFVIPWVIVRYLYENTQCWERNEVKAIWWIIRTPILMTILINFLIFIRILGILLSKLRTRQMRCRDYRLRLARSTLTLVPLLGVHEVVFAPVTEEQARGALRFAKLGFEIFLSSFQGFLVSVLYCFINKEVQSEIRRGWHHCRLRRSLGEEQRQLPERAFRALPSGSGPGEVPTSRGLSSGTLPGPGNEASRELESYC
# [2] = Immunogenicity test, antibody titre by direct ELISA, Example 6; assay type: in vivo, mouse (Balb/c); conditions: 30 nmol/kg daily for 28 days, serum on day 45
# [3] = human, in vivo; cited from earlier work
substance,measurement,setting,value
GLP-1 [天然GLP-1],Half-life in vivo,[1],~2 分钟
Glucagon [C001],GIPR agonist activity,GIPR,没有GIPR激动活性
same,Immunogenicity in vivo,[2],极低
Taspoglutide,Antibody formation rate,[3],49 %
